In the Human Domainome abundance scans (Beltran et al. 2025):
± gives the uncertainty stated by the source.

B1: Homeobox expressed in ES cells 1, residues 110 to 165; numbered along this chain, Q9UBX0 (parent)
chain: RPRTAFTQNQIEVLENVFRVNCYPGIDIREDLAQKLNLEEDRIQIWFQNRRAKLKR

Variants of: B1
Assay: abundance fitness (aPCA) (normalised: wild type 0, dead -1); higher = more abundant; growth selection in yeast, the domain comes from the species named
Details: Homo sapiens

Row | Variant | abundance fitness
1 | R29V | 0.011 ± 0.096
2 | R29W | -0.18 ± 0.15
3 | R29M | 0.303 ± 0.33
4 | R29Y | -0.284 ± 0.18
5 | R29N | -0.864 ± 0.47
6 | R29D | -0.749 ± 0.22
7 | R29K | -0.691 ± 0.28
8 | R29G | -0.704 ± 0.17
9 | R29L | -0.222 ± 0.15
10 | R29S | -0.709 ± 0.17
11 | R29A | -0.093 ± 0.12
12 | R29T | 0.183 ± 0.16
13 | R29E | -1.23 ± 0.44
14 | R29F | -0.198 ± 0.18
15 | R29I | -0.2 ± 0.17
16 | R29P | -0.708 ± 0.1
17 | R29Q | -0.299 ± 0.32
18 | R29C | -0.019 ± 0.13
19 | V17E | -0.372 ± 0.23
20 | V17S | -0.335 ± 0.079
21 | V17W | -0.923 ± 0.27
22 | V17M | -0.197 ± 0.2
23 | V17A | -0.06 ± 0.18
24 | V17T | -0.151 ± 0.091

Row | Variant | abundance fitness
25 | V17P | -0.743 ± 0.16
26 | V17R | -0.84 ± 0.18
27 | V17Y | -0.293 ± 0.21
28 | V17H | -0.427 ± 0.2
29 | V17I | -0.091 ± 0.19
30 | V17Q | -0.359 ± 0.31
31 | V17F | -0.562 ± 0.33
32 | V17L | -0.308 ± 0.092
33 | V17K | -0.552 ± 0.35
34 | E12R | -0.346 ± 0.12
35 | E12W | -0.704 ± 0.31
36 | E12Q | 0.154 ± 0.21
37 | E12G | -0.525 ± 0.18
38 | E12P | -1.07 ± 0.36
39 | E12D | 0.28 ± 0.14
40 | E12N | -0.148 ± 0.31
41 | E12K | 0.487 ± 0.17
42 | E12S | 0.016 ± 0.14
43 | E12Y | -0.264 ± 0.37
44 | E12I | -0.612 ± 0.35
45 | E12V | -0.137 ± 0.095
46 | E12L | -0.236 ± 0.17
47 | E12F | 0.203 ± 0.18
48 | E12T | -0.009 ± 0.15

Row | Variant | abundance fitness
49 | L14I | -0.298 ± 0.47
50 | L14E | -0.87 ± 0.45
51 | L14G | -0.88 ± 0.11
52 | L14W | -0.625 ± 0.37
53 | L14A | -1.02 ± 0.26
54 | L14T | -0.463 ± 0.47
55 | L14M | -0.267 ± 0.2
56 | L14R | -0.77 ± 0.18
57 | L14K | -0.519 ± 0.24
58 | L14N | -0.506 ± 0.49
59 | N16V | -0.701 ± 0.16
60 | N16K | -0.034 ± 0.19
61 | N16Q | -0.073 ± 0.15
62 | N16E | -0.114 ± 0.073
63 | N16L | -0.561 ± 0.12
64 | N16M | -0.215 ± 0.19
65 | N16C | -0.365 ± 0.15
66 | N16T | -0.125 ± 0.16
67 | N16S | -0.02 ± 0.13
68 | N16F | -0.962 ± 0.39
69 | N16D | -0.073 ± 0.12
70 | N16Y | -0.56 ± 0.3
71 | N16R | -0.417 ± 0.19
72 | N16W | -0.755 ± 0.27

Row | Variant | abundance fitness
73 | N16P | -1 ± 0.25
74 | L32F | -0.757 ± 0.24
75 | L32P | -0.884 ± 0.46
76 | L32M | -0.689 ± 0.23
77 | L32W | -0.386 ± 0.17
78 | L32D | -0.826 ± 0.45
79 | L32A | -0.832 ± 0.17
80 | L32E | -0.824 ± 0.45
81 | L32K | -0.833 ± 0.18
82 | L32S | -0.787 ± 0.14
83 | L32Q | -0.487 ± 0.41
84 | L32G | -0.904 ± 0.12
85 | L32V | -0.685 ± 0.13
86 | L32I | -0.363 ± 0.4
87 | L32R | -0.886 ± 0.1
88 | L32T | -0.495 ± 0.24
89 | I26L | 0.151 ± 0.12
90 | I26D | -0.297 ± 0.11
91 | I26R | 0.002 ± 0.088
92 | I26Q | 0.013 ± 0.14
93 | I26N | 0.226 ± 0.23
94 | I26E | -0.19 ± 0.19
95 | I26Y | -0.159 ± 0.066
96 | I26K | 0.305 ± 0.14

Row | Variant | abundance fitness
97 | I26G | -0.319 ± 0.16
98 | I26P | 0.054 ± 0.21
99 | I26F | -0.08 ± 0.2
100 | I26C | -0.218 ± 0.15
101 | I26A | -0.057 ± 0.14
102 | I26T | -0.341 ± 0.14
103 | I26M | -0.38 ± 0.3
104 | I26S | -0.078 ± 0.094
105 | I26W | -0.138 ± 0.13
106 | A33E | -0.848 ± 0.29
107 | A33I | -0.703 ± 0.2
108 | A33S | -0.124 ± 0.09
109 | A33Y | -0.396 ± 0.23
110 | A33V | -0.363 ± 0.16
111 | A33L | -0.89 ± 0.1
112 | A33Q | 0.36 ± 0.48
113 | A33C | -0.186 ± 0.31
114 | A33K | -0.566 ± 0.33
115 | A33G | -0.242 ± 0.079
116 | A33W | -0.694 ± 0.16
117 | A33M | -0.252 ± 0.33
118 | I28C | -0.534 ± 0.41
119 | I28R | -0.667 ± 0.16
120 | I28M | -0.655 ± 0.27

Row | Variant | abundance fitness
121 | I28S | -0.505 ± 0.091
122 | I28Y | -0.309 ± 0.23
123 | I28L | -0.209 ± 0.14
124 | I28W | -0.577 ± 0.17
125 | I28K | -0.852 ± 0.33
126 | I28Q | -0.171 ± 0.14
127 | I28G | -0.692 ± 0.21
128 | I28E | -0.176 ± 0.14
129 | I28P | -0.725 ± 0.19
130 | I28A | -0.089 ± 0.16
131 | I28V | 0.045 ± 0.13
132 | Y23N | 0.114 ± 0.15
133 | Y23A | 0.05 ± 0.074
134 | Y23K | -0.262 ± 0.11
135 | Y23T | -0.137 ± 0.2
136 | Y23S | -0.04 ± 0.092
137 | Y23D | -0.23 ± 0.25
138 | Y23R | -0.381 ± 0.12
139 | Y23F | -0.411 ± 0.3
140 | Y23V | -0.546 ± 0.21
141 | Y23C | 0.05 ± 0.076
142 | Y23Q | -0.251 ± 0.31
143 | Y23W | -0.063 ± 0.091
144 | Y23L | -0.338 ± 0.13

Row | Variant | abundance fitness
145 | Y23M | -0.44 ± 0.27
146 | R19T | -0.01 ± 0.12
147 | R19M | -0.529 ± 0.22
148 | R19Q | -0.187 ± 0.22
149 | R19V | -0.142 ± 0.12
150 | R19W | -0.64 ± 0.18
151 | R19E | -0.291 ± 0.089
152 | R19C | -0.354 ± 0.1
153 | R19S | -0.334 ± 0.11
154 | R19Y | -0.614 ± 0.38
155 | R19F | -0.467 ± 0.12
156 | R19H | -0.46 ± 0.27
157 | R19K | -0.105 ± 0.18
158 | R19I | -0.327 ± 0.26
159 | R19G | -0.452 ± 0.071
160 | Q34S | -0.197 ± 0.13
161 | Q34Y | -0.347 ± 0.32
162 | Q34H | -0.129 ± 0.16
163 | Q34L | -0.157 ± 0.12
164 | Q34A | -0.423 ± 0.17
165 | Q34K | -0.119 ± 0.18
166 | Q34G | -0.168 ± 0.074
167 | Q34E | -0.076 ± 0.087
